# Source: patent US20230122503A1, “ANTI-PSMA RADIOCONJUGATES AND USES THEREOF” (Janssen Biotech, Inc., priority 2021, published 2023)
# Molecular target: human prostate-specific membrane antigen (PSMA), full length, on cells (human) (UniProt Q04609)
# Test: cell-based or functional assay
# human prostate-specific membrane antigen (PSMA), full length, on cells (human), sequence (Q04609 whole entry): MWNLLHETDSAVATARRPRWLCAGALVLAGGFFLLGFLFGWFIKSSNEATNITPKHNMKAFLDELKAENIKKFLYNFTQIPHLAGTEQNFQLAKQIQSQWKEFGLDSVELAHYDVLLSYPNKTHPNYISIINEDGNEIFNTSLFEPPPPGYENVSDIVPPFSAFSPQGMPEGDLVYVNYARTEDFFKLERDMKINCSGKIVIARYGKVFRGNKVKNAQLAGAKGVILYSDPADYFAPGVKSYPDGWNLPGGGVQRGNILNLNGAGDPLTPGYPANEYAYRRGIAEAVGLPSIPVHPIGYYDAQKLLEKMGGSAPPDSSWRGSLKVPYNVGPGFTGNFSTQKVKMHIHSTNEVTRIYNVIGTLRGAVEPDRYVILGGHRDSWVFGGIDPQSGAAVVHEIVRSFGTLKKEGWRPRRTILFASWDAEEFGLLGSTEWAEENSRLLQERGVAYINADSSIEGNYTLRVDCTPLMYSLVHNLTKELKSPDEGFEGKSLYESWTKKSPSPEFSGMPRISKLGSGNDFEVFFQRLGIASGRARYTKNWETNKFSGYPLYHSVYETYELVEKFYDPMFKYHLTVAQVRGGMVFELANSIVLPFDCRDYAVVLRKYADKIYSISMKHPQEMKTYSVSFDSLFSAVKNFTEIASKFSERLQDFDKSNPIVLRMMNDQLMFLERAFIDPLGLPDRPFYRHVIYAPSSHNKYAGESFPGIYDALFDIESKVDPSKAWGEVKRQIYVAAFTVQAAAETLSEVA
Substance,"IC25 (cytotoxicity on 22RV1 cells, MMAF ADC, DAR 4.3, 6 d)","IC50 (cytotoxicity on 22RV1 cells, DX8951 ADC, DAR 8, 6 d)"
Isotype control conjugated to MMAF (antibody),> 100 nM,–
Isotype control conjugated to DX8951 (antibody),–,57.2 nM
